# Results published in PMC8948245, “Mechanistic insights into the regulation of plant phosphate homeostasis by the rice SPX2 – PHR2 complex” (Nature Communications, 2022).
# Assays:
# [1] = molecular target: T1, His-tagged PHR2^225–362 (rice PHR2, MYB domain and CC domain) (rice (Oryza sativa), UniProt Q6Z156 225-362); assay: AUC; sedimentation velocity of the purified SPX2/PHR2 complex, 25 mM Tris-HCl pH 8.0, 150 mM NaCl, 1 mM InsP6, 18 °C, 0.7 mg ml^-1; settings: both partners purified
# T1 construct: pET21b, C-terminal 8×His tag; codon-optimised synthetic cDNA; also called PHR2-His; source: E. coli BL21(DE3), co-expressed with SPX2; not shown: 8×His, C-terminal, kept
# T1 sequence (Q6Z156 225-362): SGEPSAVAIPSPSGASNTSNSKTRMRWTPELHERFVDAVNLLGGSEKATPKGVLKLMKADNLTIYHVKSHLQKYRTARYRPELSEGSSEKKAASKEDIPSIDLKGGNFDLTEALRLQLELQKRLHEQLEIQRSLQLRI
# [2] = molecular target: the molecule itself; assay: cross-linking; mixture of PHR2^225–362-His complexes with SPX2-flag homodimer and SPX2/SPX2-flag heterodimer from the tandem pull-down; about 30 μM with 200 μM M2M, room temperature, 30 min; SDS-PAGE with or without 100 mM DTT
# [3] = molecular target: the molecule itself; assay: cross-linking; about 30 μM purified SPX2/PHR2^225–362 complex with 200 μM M2M, room temperature, 30 min, 25 mM Tris–HCl pH 8.0, 150 mM NaCl, 1 mM InsP6; SDS-PAGE with or without 100 mM DTT
# [4] = molecular target: PHR2 MYB-CC K292D (Oryza sativa, UniProt B8B5N8 225-362, K292D); assay: EMSA; EMSA: 10 nM FAM-DNA, 0.3375-0.8 uM PHR2, 25 mM Tris-HCl pH 8.0, 150 mM NaCl, 5 mM DTT, 10% glycerol, 200 ng/ml heparin, 4 C, 30 min; crystal: 13% PEG 3350, 0.1; settings: protein: recombinant; tags: C-terminal 8xHis; chain copies: 2; blunt, 30 bp
# Chain of PHR2 MYB-CC K292D (B8B5N8 225-362 K292D): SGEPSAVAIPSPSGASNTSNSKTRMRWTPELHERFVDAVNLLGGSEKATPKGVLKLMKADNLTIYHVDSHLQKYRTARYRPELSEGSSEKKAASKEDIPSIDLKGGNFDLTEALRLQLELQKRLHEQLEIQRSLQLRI
binder,measurement,setting,value
"full-length rice SPX2 (SPX2^1–280), untagged (natural protein, rice (Oryza sativa), UniProt Q6Z784 1-280, looked up, rice (Oryza sativa) SPX2 (OsSPX2), full length, residues 1-280; pBB75 vector without any tag; also called OsSPX2; source: E. coli BL21(DE3), co-expressed with PHR2) MKFGKSLSSQIVEMQPEWRDNFLSYKDLKKRLNLISGGAAGERASKRRRVGGATAVTVTAAAAGGMTLEQAGFVGLLDAELDKFNFFFLEKEEEYVIKQKELRERKMASAEEVMRVRKEIVDLHGEMVLLENYSALNYTGLVKILKKYDKRTGSMIRLPFVQKVLQQPFFTTDLLYKLVKECEEMLDQLMPTNEHSVASEDGKDDSEGEEKGSKPSSSSSANGGAVPGEAEAEDERSTDMKSTVTAALRALREIRSGSSTVSVFSLPPLHGSNGQDEPGR",stoichiometry N,[1],1 SPX2:PHR2 ratio (2:2)
"SPX2^K106C-flag (natural protein, rice (Oryza sativa), UniProt Q6Z784 1-280, looked up, rice (Oryza sativa) SPX2, residues 1-280, K106C; source: Ni-NTA pull-down and flag pull-down in tandem; not shown: 3×flag, N-terminal, kept) MKFGKSLSSQIVEMQPEWRDNFLSYKDLKKRLNLISGGAAGERASKRRRVGGATAVTVTAAAAGGMTLEQAGFVGLLDAELDKFNFFFLEKEEEYVIKQKELRERCMASAEEVMRVRKEIVDLHGEMVLLENYSALNYTGLVKILKKYDKRTGSMIRLPFVQKVLQQPFFTTDLLYKLVKECEEMLDQLMPTNEHSVASEDGKDDSEGEEKGSKPSSSSSANGGAVPGEAEAEDERSTDMKSTVTAALRALREIRSGSSTVSVFSLPPLHGSNGQDEPGR",binding result,[2],binds
"SPX2^1-280_K106C (natural protein, rice (Oryza sativa), UniProt Q6Z784 1-280, looked up, rice (Oryza sativa) SPX2, residues 1-280, K106C; also called SPX2^K106C) MKFGKSLSSQIVEMQPEWRDNFLSYKDLKKRLNLISGGAAGERASKRRRVGGATAVTVTAAAAGGMTLEQAGFVGLLDAELDKFNFFFLEKEEEYVIKQKELRERCMASAEEVMRVRKEIVDLHGEMVLLENYSALNYTGLVKILKKYDKRTGSMIRLPFVQKVLQQPFFTTDLLYKLVKECEEMLDQLMPTNEHSVASEDGKDDSEGEEKGSKPSSSSSANGGAVPGEAEAEDERSTDMKSTVTAALRALREIRSGSSTVSVFSLPPLHGSNGQDEPGR",binding result,[3],binds
FAM P1BS EMSA probe (dsDNA) DNA 1: AAGCTTGAATATGCAATGGAATATGCTTAG DNA 2: CTAAGCATATTCCATTGCATATTCAAGCTT,binding result,[4],no binding
